Laboratory results: patent publication US20250333518A1 (ROCK BIOMEDICAL, published 2025)

Molecular target: T1, CD20 (UniProt P11836 1-297, limits assumed)
T1 construct: also called the antigen (of Rituximab and Obinutuzumab)
T1 sequence (looked up): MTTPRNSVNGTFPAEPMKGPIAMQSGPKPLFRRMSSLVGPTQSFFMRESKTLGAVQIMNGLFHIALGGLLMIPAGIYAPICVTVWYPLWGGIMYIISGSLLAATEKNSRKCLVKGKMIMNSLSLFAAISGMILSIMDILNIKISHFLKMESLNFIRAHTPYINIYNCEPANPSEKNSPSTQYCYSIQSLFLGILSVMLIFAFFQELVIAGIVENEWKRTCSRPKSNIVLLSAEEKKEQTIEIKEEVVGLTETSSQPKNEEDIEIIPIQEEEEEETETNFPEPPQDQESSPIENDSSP
Assay: ELISA, target binding

B1: Rituximab (MabThera® or Rituxan®) population produced by the SAII A3 Fut8 KO cells according to the present disclosure (antibody, human IgG1, kappa, V domains shown)
VH: QVQLQQPGAELVKPGASVKMSCKASGYTFTSYNMHWVKQTPGRGLEWIGAIYPGNGDTSYNQKFKGKATLTADKSSSTAYMQLSSLTSEDSAVYYCARSTYYGGDWYFNVWGAGTTVTVSA
VL: QIVLSQSPAILSASPGEKVTMTCRASSSVSYIHWFQQKPGSSPKPWIYATSNLASGVPVRFSGSGSGTSYSLTISRVEAEDAATYYCQQWTSNPPTFGGGTKLEIKR
modifications: N-glycan: sialylated complex type glycans around 83.4% of the glycans, no core fucose
notes: Differs from the commercial product in the glycan profile only; also called Biobetter Rituximab; glycoengineered MabThera®
  EC50: 0.77 nM

B2: Rituximab, commercially available product (MabThera®) (antibody, human IgG1, kappa, V domains shown)
VH: QVQLQQPGAELVKPGASVKMSCKASGYTFTSYNMHWVKQTPGRGLEWIGAIYPGNGDTSYNQKFKGKATLTADKSSSTAYMQLSSLTSEDSAVYYCARSTYYGGDWYFNVWGAGTTVTVSA
VL: QIVLSQSPAILSASPGEKVTMTCRASSSVSYIHWFQQKPGSSPKPWIYATSNLASGVPVRFSGSGSGTSYSLTISRVEAEDAATYYCQQWTSNPPTFGGGTKLEIKR
notes: Bought product; also called Rituxan
  EC50: 0.544 nM
